B1: bacteriophage SPP1 head completion protein gp15 (adaptor protein) (natural protein, UniProt Q38584 1-102, looked up)
chain: MDIQRVKRLLSITNDKHDEYLTEMVPLLVEFAKDECHNPFIDKDGNESIPSGVLIFVAKAAQFYMTNAGLTGRSMDTVSYNFATEIPSTILKKLNPYRKMAR
notes: Head completion (adaptor) protein gp15 of bacteriophage SPP1; native protein from the virion connector; C-terminal residues ArgLysMetAlaArg, last residue named Arg102; Dodecamer in the connector; monomer in solution before assembly (PDB 2KBZ, cited); source: CsCl gradient, EDTA disruption, glycerol gradient; copies: 12
B2: bacteriophage SPP1 head completion protein gp16 (stopper protein) (natural protein, UniProt O48446 1-109, looked up)
chain: MYEEFPDVITFQSYVEQSNGEGGKTYKWVDEFTAAAHVQPISQEEYYKAQQLQTPIGYNIYTPYDDRIDKKMRVIYRGKIVTFIGDPVDLSGLQEITRIKGKEDGAYVG
notes: Head completion (stopper) protein gp16 of bacteriophage SPP1; native protein from the virion connector; Hexamer in the connector; monomer in solution before assembly (PDB 2KCA, cited); source: CsCl gradient, EDTA disruption, glycerol gradient
B3: bacteriophage SPP1 portal protein gp6 (natural protein, UniProt P54309 1-503, looked up)
chain: MADIYPLGKTHTEELNEIIVESAKEIAEPDTTMIQKLIDEHNPEPLLKGVRYYMCENDIEKKRRTYYDAAGQQLVDDTKTNNRTSHAWHKLFVDQKTQYLVGEPVTFTSDNKTLLEYVNELADDDFDDILNETVKNMSNKGIEYWHPFVDEEGEFDYVIFPAEEMIVVYKDNTRRDILFALRYYSYKGIMGEETQKAELYTDTHVYYYEKIDGVYQMDYSYGENNPRPHMTKGGQAIGWGRVPIIPFKNNEEMVSDLKFYKDLIDNYDSITSSTMDSFSDFQQIVYVLKNYDGENPKEFTANLRYHSVIKVSGDGGVDTLRAEIPVDSAAKELERIQDELYKSAQAVDNSPETIGGGATGPALENLYALLDLKANMAERKIRAGLRLFFWFFAEYLRNTGKGDFNPDKELTMTFTRTRIQNDSEIVQSLVQGVTGGIMSKETAVARNPFVQDPEEELARIEEEMNQYAEMQGNLLDDEGGDDDLEEDDPNAGAAESGGAGQVS
notes: Portal protein gp6 of bacteriophage SPP1, 503 residues; native protein from the virion connector; traced in the cryoEM map from residue 28 to 470; Dodecamer in the connector gp6(12)gp15(12)gp16(6); the assembly-naive recombinant form (PDB 2JES) is a 13-mer; also called connector gp6; gp6 12-mer; source: CsCl gradient, EDTA disruption, glycerol gradient; copies: 12

How the values were obtained:
Assay in all cases: cryo-EM structure; single particle cryoEM of the native gp6gp15gp16 connector extracted from tailless DNA-filled capsids, 0.64 mg/mL in 0.5x TBT (Tris-Cl pH 7.5, NaCl, MgCl2); C6 symmetry in the final refinement; 2.7 Å (FSC 0.5)
[1] = molecular target: B3; details: both partners purified
[2] = molecular target: the molecule itself
[3] = molecular target: B2; details: both partners purified

| Binder | binding result [1] | stoichiometry N [2] | binding result [3] |
| --- | --- | --- | --- |
| B1 | binds | 12 | binds |
| B2 | – | 6 | – |
| B3 | – | 12 | – |

— publication PMC9701221 (Nature Communications, 2022)
